B5: LKB1 (enzyme, UniProt Q15831 1-430, looked up)
chain: MEVVDPQQLGMFTEGELMSVGMDTFIHRIDSTEVIYQPRRKRAKLIGKYLMGDLLGEGSYGKVKEVLDSETLCRRAVKILKKKKLRRIPNGEANVKKEIQLLRRLRHKNVIQLVDVLYNEEKQKMYMVMEYCVCGMQEMLDSVPEKRFPVCQAHGYFCQLIDGLEYLHSQGIVHKDIKPGNLLLTTGGTLKISDLGVAEALHPFAADDTCRTSQGSPAFQPPEIANGLDTFSGFKVDIWSAGVTLYNITTGLYPFEGDNIYKLFENIGKGSYAIPGDCGPPLSDLLKGMLEYEPAKRFSIRQIRQHSWFRKKHPPAEAPVPIPPSPDTKDRWRSMTVVPYLEDLHGADEDEDLFDIEDDIIYTQDFTVPGQVPEEEASHNGQRRGLPKAVCMNGTEAAQLSTKSRAEGRAPNPARKACSASSKIRRLSAC
notes: Cellular protein co-precipitated with FLAG-tagged AMPKα

One assay deals with T1, Purified His6-USP10 (human, UniProt Q14694 1-798).
T1 construct: also called His-USP10; recombinant USP10; not shown: His6 tag
T1 sequence (Q14694 whole entry): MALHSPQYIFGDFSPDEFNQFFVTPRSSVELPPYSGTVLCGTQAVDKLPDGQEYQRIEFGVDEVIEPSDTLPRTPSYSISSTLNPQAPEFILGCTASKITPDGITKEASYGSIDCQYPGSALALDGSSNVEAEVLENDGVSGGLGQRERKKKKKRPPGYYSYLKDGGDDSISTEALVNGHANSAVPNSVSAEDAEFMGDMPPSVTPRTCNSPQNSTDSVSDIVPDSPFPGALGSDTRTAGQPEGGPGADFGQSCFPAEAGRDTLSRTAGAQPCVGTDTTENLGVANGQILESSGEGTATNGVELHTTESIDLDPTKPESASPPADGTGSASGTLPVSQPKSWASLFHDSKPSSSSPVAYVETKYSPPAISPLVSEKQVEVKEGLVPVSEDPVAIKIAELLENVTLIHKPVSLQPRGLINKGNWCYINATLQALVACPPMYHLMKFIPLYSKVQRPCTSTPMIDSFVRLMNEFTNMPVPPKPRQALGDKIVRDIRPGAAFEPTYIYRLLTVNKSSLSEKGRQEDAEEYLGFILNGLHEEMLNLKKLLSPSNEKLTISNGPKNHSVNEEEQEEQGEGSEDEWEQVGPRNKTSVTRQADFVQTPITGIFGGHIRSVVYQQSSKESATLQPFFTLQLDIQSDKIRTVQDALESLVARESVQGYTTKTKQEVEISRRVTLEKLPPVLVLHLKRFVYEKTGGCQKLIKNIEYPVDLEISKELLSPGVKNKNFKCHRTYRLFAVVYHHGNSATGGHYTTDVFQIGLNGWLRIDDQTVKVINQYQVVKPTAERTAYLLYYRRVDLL
Put plainly: GST pull-down with recombinant proteins (FIG. 3A). The protocol: Purified His6-USP10 was incubated with the indicated GST tagged AMPK subunits coupled to GSH-Sepharose. Proteins retained on Sepharose were then blotted with the indicated antibodies. FIGS. 3B-3D are immunoblots showing the interaction of USP10 with AMPKα in cells. HCT116 cell lysates were subjected to immunoprecipitation (IP) with control IgG, anti-USP10 (FIG. 3B), anti-AMPKα1 (FIG. 3C), anti-AMPKα2 (FIG. 3D) antibodies. The immunoprecipitates were then blotted with the indicated antibodies. […] 293T cells transfected with the indicated constructs were lysed, and lysates were incubated with anti-FLAG beads. Proteins retained on beads were blotted with the indicated antibodies. […] HCT116 cells infected with lentivirus encoding the indicated shRNAs were transfected with the indicated constructs. Cell lysates and Ni-NTA pulldowns were immunoblotted as indicated. -Glu, glucose starvation. FIG. 3G is a picture of an immunoblot showing that USP10 deubiquitinase activity is required for AMPK deubiquitination. The indicated constructs were transfected into USP10 knockdown cell lines, and cells were placed in medium without glucose for 4 hours. Cell lysates were incubated with anti-HA beads and immunoblotted with the indicated antibodies. -Glu, glucose starvation. FIG. 3H is a picture of an immunoblot showing deubiquitination of AMPKα2 in vitro by USP10. Ubiquitinated AMPKα2 was incubated with purified USP10 or USP10CA in vitro, and then blotted with indicated antibodies.
Immunoprecipitation, immunoblotting, and in vitro pull-down assay—Cell lysates were prepared and immunoprecipitation and immunoblotting were performed as described elsewhere (Yuan et al., supra). In brief, cells were lysed with NETN buffer (20 mM Tris-HCl, pH 8.0, 100 mM NaCl, 1 mM EDTA, 0.5% Nonidet P-40) containing 50 mM β-glycerophosphate, 10 mM NaF, and 1 mg/ml each of pepstatin A and aprotinin.

Assay [1] deals with B5. As to the kind of experiment: FLAG-bead immunoprecipitation from HCT116 lysates, LKB1 immunoblot (FIG. 5G). On the technique in general: A western blot detects proteins with antibodies after separation by electrophoresis.
Assay [2] concerns the target B5. Put plainly: FLAG-bead immunoprecipitation from HCT116 lysates, LKB1 immunoblot (FIG. 6F).
For assay [3], the target named is T2, WT AMPKα1 (FLAG-tagged, expressed in HCT116 cells) (human, UniProt Q13131 1-559).
T2 construct: Precipitated from cell lysates with FLAG beads; ubiquitinated in part in cells; also called FLAG-AMPKα; not shown: FLAG tag
The assay is described as above.

In assay [4] the target is T3, WT AMPKα2 (FLAG-tagged, expressed in HCT116 cells) (human, UniProt P54646 1-552).
T3 construct: Precipitated from cell lysates with FLAG beads; ubiquitinated in part in cells; also called FLAG-AMPKα; not shown: FLAG tag
Put plainly: FLAG-bead immunoprecipitation from HCT116 lysates, LKB1 immunoblot (FIG. 5G).

The record followed here is patent US20190030139A1 (MAYO FOUNDATION FOR MEDICAL EDUCATION AND RESEARCH, published 2019).

B1: GST tagged AMPK γ1 (other, UniProt P54619 1-331, looked up)
chain: METVISSDSSPAVENEHPQETPESNNSVYTSFMKSHRCYDLIPTSSKLVVFDTSLQVKKAFFALVTNGVRAAPLWDSKKQSFVGMLTITDFINILHRYYKSALVQIYELEEHKIETWREVYLQDSFKPLVCISPNASLFDAVSSLIRNKIHRLPVIDPESGNTLYILTHKRILKFLKLFITEFPKPEFMSKSLEELQIGTYANIAMVRTTTPVYVALGIFVQHRVSALPVVDEKGRVVDIYSKFDVINLAAEKTYNNLDVSVTKALQHRSHYFEGVLKCYLHETLETIINRLVEAEVHRLVVVDENDVVKGIVSLSDILQALVLTGGEKKP
notes: not shown: glutathione S-transferase tag of vector pGEX-4T-1
In the case of B1, the binding result with Purified His6-USP10 is “no binding”.

B2: GST tagged AMPK β2 (other, UniProt O43741 1-272, looked up)
chain: MGNTTSDRVSGERHGAKAARSEGAGGHAPGKEHKIMVGSTDDPSVFSLPDSKLPGDKEFVSWQQDLEDSVKPTQQARPTVIRWSEGGKEVFISGSFNNWSTKIPLIKSHNDFVAILDLPEGEHQYKFFVDGQWVHDPSEPVVTSQLGTINNLIHVKKSDFEVFDALKLDSMESSETSCRDLSSSPPGPYGQEMYAFRSEERFKSPPILPPHLLQVILNKDTNISCDPALLPEPNHVMLNHLYALSIKDSVMVLSATHRYKKKYVTTLLYKPI
notes: as for B1
In the case of B2, in the assay with Purified His6-USP10, the binding result is “no binding”.

B3: AMPKα2 4KR mutant (FLAG-tagged, expressed in HCT116 cells) (enzyme)
chain: MAEKQKHDGRVKIGHYVLGDTLGVGTFGKVKIGEHQLTGHKVAVKILNRQKIRSLDVVGRIKREIQNLKLFRHPHIIKLYQVISTPTDFFMVMEYVSGGELFDYICKHGRVEEMEARRLFQQILSAVDYCHRHMVVHRDLKPENVLLDAHMNAKIADFGLSNMMSDGEFLRTSCGSPNYAAPEVISGRLYAGPEVDIWSCGVILYALLCGTLPFDDEHVPTLFKKIRGGVFYIPEYLNRSVATLLMHMLQVDPLKRATIKDIREHEWFKQDLPSYLFPEDPSYDANVIDDEAVKEVCEKFECTESEVMNSLYSGDPQDQLAVAYHLIIDNRRIMNQASEFYLASSPPSGSFMDDSAMHIPPGLKPHPERMPPLIADSPRARCPLDALNTTRPKSLAVKKAKWHLGIRSQSKPYDIMAEVYRAMKQLDFEWKVVNAYHLRVRRKNPVTGNYVKMSLQLYLVDNRSYLLDFRSIDDEVVEQRSGSSTPQRSCSAAGLHRPRSSFDSTTAESHSLSGSLTGSLTGSTLSSVSPRLGSHTMDFFEMCASLITTLAR
notes: also called quadruple K to R mutant (4KR); AMPKα 4KR mutant; not shown: FLAG tag
On to B3, for which the binding result with LKB1 [1] was “binds”.

B4: AMPKα1 4KR mutant (FLAG-tagged, expressed in HCT116 cells) (enzyme)
chain: MRRLSSWRKMATAEKQKHDGRVKIGHYILGDTLGVGTFGKVKVGKHELTGHKVAVKILNRQKIRSLDVVGRIRREIQNLKLFRHPHIIKLYQVISTPSDIFMVMEYVSGGELFDYICKNGRLDEKESRRLFQQILSGVDYCHRHMVVHRDLKPENVLLDAHMNAKIADFGLSNMMSDGEFLRTSCGSPNYAAPEVISGRLYAGPEVDIWSSGVILYALLCGTLPFDDDHVPTLFKKICDGIFYTPQYLNPSVISLLKHMLQVDPMKRATIKDIREHEWFKQDLPRYLFPEDPSYSSTMIDDEALKEVCEKFECSEEEVLSCLYNRNHQDPLAVAYHLIIDNRRIMNEAKDFYLATSPPDSFLDDHHLTRPHPERVPFLVAETPRARHTLDELNPQRSKHQGVRKAKWHLGIRSQSRPNDIMAEVCRAIKQLDYEWKVVNPYYLRVRRKNPVTSTYSKMSLQLYQVDSRTYLLDFRSIDDEITEARSGTATPQRSGSVSNYRSCQRSDSDAEAQGKSSEVSLTSSVTSLDSSPVDLTPRPGSHTIEFFEMCANLIKILAQ
notes: also called 4KR AMPKα1; AMPKα 4KR mutant; not shown: FLAG tag
Turning to B4, the binding result in the assay with LKB1 [2] is recorded as “binds”.
As to B5, the binding result in assay [3] and in assay [4] was “binds” in each case.

B6: GST tagged AMPK β1 (other, UniProt Q9Y478 1-270, looked up)
chain: MGNTSSERAALERHGGHKTPRRDSSGGTKDGDRPKILMDSPEDADLFHSEEIKAPEKEEFLAWQHDLEVNDKAPAQARPTVFRWTGGGKEVYLSGSFNNWSKLPLTRSHNNFVAILDLPEGEHQYKFFVDGQWTHDPSEPIVTSQLGTVNNIIQVKKTDFEVFDALMVDSQKCSDVSELSSSPPGPYHQEPYVCKPEERFRAPPILPPHLLQVILNKDTGISCDPALLPEPNHVMLNHLYALSIKDGVMVLSATHRYKKKYVTTLLYKPI
notes: as for B1
As to B6, the binding result with Purified His6-USP10 was “no binding”.
